Test results from patent publication US7189515.

Biological target: T1, mature human interleukin-8 with C-terminal hexahistidine (human, UniProt P10145 21-99, biotin-XX (NHS ester labelling) in the affinity determination of Example 21; unlabelled in Examples 27 and 34)
T1 construct: mature; also called IL-8; IL8
T1 sequence: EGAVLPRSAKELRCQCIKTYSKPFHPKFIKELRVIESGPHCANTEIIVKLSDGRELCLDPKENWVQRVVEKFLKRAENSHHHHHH
Test: BIACORE two-site assay, blank-subtracted; IL-8 held by primary antibody (competitor) M1-10
Method: A BIACORE® 3000 instrument (Biacore AB, Uppsala, Sweden) was used to measure the epitope binding.
Each antibody was diluted to 100 µg/mL and the IL-8 was diluted to 1 µM in 10 mM N-2-hydroxyethylpiperazine-N'-2-ethane-sulfonic acid, 150 mM sodium chloride, 3 mM EDTA, 0.005% polysorbate 20, pH 7.4 (HBS-EP, Biacore AB, Uppsala, Sweden). […] IL-8 (10 µL) was then bound to the primary antibody in all 4 channels. One secondary antibody (10 µL) was passed through one channel each. The resonance units of the secondary antibodies were measured 20 seconds after the injection was over. Blank resonance unit values for each primary/secondary antibody combination were obtained by injecting HBS-EP instead of IL-8 and these were subtracted from the resonance units measured for the corresponding primary/secondary antibody pairing that was contacted with IL-8. Blocking antibody injections were not done.

Binder | Resonance Units [RU]
M1-10 (Fab, also called monoclonal human antibody M1-10; M1_10H) heavy: QVQLVQSGGGLVHPGGSLRLSCEGSGFIFRNHPIHWVRQAPGKGLEWVSVSGIGGDTYYADSVKGRFSISRDNAKNSLYLQMNSLRAEDMAVYYCAREYYYGSGSYRVDYYYYGMDVWGQGTTVTVSSASTKGPSVFPLAPSSKSTSGGTAALGCLVKDYFPEPVTVSWNSGALTSGVHTFPAVLQSSGLYSLSSVVTVPSSSLGTQTYICNVNHKPSNTKVDKKAEPKSHHHHHH light: not shown | -17
M1-21 (Fab, also called monoclonal antibody M1-21; M1_21H) heavy: QVQLVQSGGGVVQPGKSLRLSCAASGFTFSYYGMHWVRQVPGKGLEWVAAVWYDGSTTYSPDSVKGRFTISRDDSKNTLYLQMSSLRAEDTAVYYCARDRVGLFDYWGQGTLVTVSSASTKGPSVFPLAPSSKSTSGGTAALGCLVKDYFPEPVTVSWNSGALTSGVHTFPAVLQSSGLYSLSSVVTVPSSSLGTQTYICNVNHKPSNTKVDKKAEPKSHHHHHH light: not shown | 706
